Source: patent US20130295118A1 (CELLERANT THERAPEUTICS, published 2013)

T1: human C type Lectin Like molecule 1 (CLL-1) on cells (human, UniProt Q5QGZ9 1-265)
T1 sequence: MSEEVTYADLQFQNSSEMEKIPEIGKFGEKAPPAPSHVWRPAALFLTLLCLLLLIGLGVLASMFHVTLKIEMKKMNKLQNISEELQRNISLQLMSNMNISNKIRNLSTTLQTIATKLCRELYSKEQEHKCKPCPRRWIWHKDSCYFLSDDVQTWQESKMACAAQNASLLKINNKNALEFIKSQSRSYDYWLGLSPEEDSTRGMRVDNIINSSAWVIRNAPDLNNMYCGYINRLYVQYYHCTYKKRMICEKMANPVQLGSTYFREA

T2: biotinylated CLL-1 (hCLL-1) (human, UniProt Q5QGZ9 65-265, limits assumed, biotinylated (site not stated))
T2 sequence: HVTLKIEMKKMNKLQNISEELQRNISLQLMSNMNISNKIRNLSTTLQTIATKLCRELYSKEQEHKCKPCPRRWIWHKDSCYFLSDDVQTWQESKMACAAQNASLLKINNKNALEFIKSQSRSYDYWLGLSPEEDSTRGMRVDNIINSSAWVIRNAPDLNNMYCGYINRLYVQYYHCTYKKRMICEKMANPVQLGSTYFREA

T3: C lectin domain of CLL-1 expressed in 293T cells (human, UniProt Q5QGZ9 140-249)
T3 sequence: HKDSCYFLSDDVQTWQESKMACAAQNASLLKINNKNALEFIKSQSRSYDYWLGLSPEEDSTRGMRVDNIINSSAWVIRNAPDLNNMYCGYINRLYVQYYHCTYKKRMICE


How the values were obtained:
[1] = target: T1, human C type Lectin Like molecule 1 …; experiment: cell-based or functional assay
[2] = target: T2, biotinylated CLL-1 (hCLL-1); experiment: biotinylated CLL-1 on streptavidin sensor tips; antibody at 10, 30, 90 ug/ml; global 1:1 fit
[3] = target: T3, C lectin domain of CLL-1 expressed in …; experiment: binding to 293T cells expressing the C lectin domain of CLL-1
[4] = target: T1, human C type Lectin Like molecule 1 …; experiment: cell-based or functional assay; remark: listed apart in the source
[5] = target: T1, human C type Lectin Like molecule 1 …; experiment: FACS, recombinant 293 cells expressing human CLL-1
[6] = target: T1, human C type Lectin Like molecule 1 …; experiment: FACS, OCI AML-5 AML cell line
[7] = target: T1, human C type Lectin Like molecule 1 …; experiment: FACS, primary AML patient cells, Group 1
[8] = target: T1, human C type Lectin Like molecule 1 …; experiment: FACS, HL60 AML cell line
[9] = target: T1, human C type Lectin Like molecule 1 …; experiment: cell-based or functional assay; remark: listed apart in the source

| Binder | ADC EC50 (pM), saporin-conjugated antibody, cell viability [1] | Kd [2] | binding result [3] | ADCC EC50 (Promega ADCC Reporter Assay) [4] | % of live cells with antibody binding [5] | % of live cells with antibody binding [6] | positive patient samples / total tested [7] | % of live cells with antibody binding [8] | CDC (% killing), 10 ug/mL antibody, primary AML cells [9] |
| --- | --- | --- | --- | --- | --- | --- | --- | --- | --- |
| CLL-1 antibody clone M26 (antibody, V domains shown, Conjugated to saporin in the ADC assays) VH: EVQLQQSGPELVKPGASVKMSCKASGYTFTSYFIHWVKQKPGQGLEWIGFINPYNDGSKYNEKFKGKATLTSDKSSSTAYMELSSLTSEDSAVYYCTRDDGYYGYAMDYWGQGTSVTVSS VL: DIQMTQSPSSLSASLGERVSLTCRATQELSGYLSWLQQKPDGTIKRLIYAASTLDSGVPKRFSGNRSGSDYSLTISSLESEDFADYYCLQYAIYPYTFGGGTKLEIKR | 90.2 pM | 0.214 nM | no binding |  |  |  |  |  |  |
| human chimeric CLL-1 antibody ChiM26 (antibody, V domains shown) VH: EVQLQQSGPELVKPGASVKMSCKASGYTFTSYFIHWVKQKPGQGLEWIGFINPYNDGSKYNEKFKGKATLTSDKSSSTAYMELSSLTSEDSAVYYCTRDDGYYGYAMDYWGQGTSVTVSS VL: DIQMTQSPSSLSASLGERVSLTCRATQELSGYLSWLQQKPDGTIKRLIYAASTLDSGVPKRFSGNRSGSDYSLTISSLESEDFADYYCLQYAIYPYTFGGGTKLEIKR |  |  |  | 0.079 µg/mL |  |  |  |  |  |
| CLL-1 antibody clone M2 (antibody, IgG1, V domains shown) VH: EVQLRQSGPELVKPGASVKMSCKASGYTFTSYFMHWVKQKPGQGLEWIGFINPYNDGTKYNEKFKGKATLTSDKSSSTAYMELNSLTSEDSAVYYCTRDDGYYDYAMDYWGQGTSVTVSS VL: DIQMTQSPSSLSASLGERVSLTCRASQEISVYLSWLQQKPDGTIKRLIYAASTLDSGVPERFSGSRSGSDYSLTISSLESEDFADYYCLQYASYPYTFGGGTKLEIKR | 20.9 pM | 0.205 nM |  |  | 99.9% | 96.3% | 2 of 2 patient samples | 90.3% |  |
| CLL-1 antibody clone M22 (antibody, IgG2a, V domains shown) VH: QVQLQQPGAELVKPGASVKLSCKASGYTFTRYWMHWVKQRPGQGLEWIGNIDPSDTETHYNQQFKDKATLTVDKSSSTAYMQLSSLTSEDSAVYYCAIYYGNPSYYAMDYWGQGTSVTVSS VL: DIVMTQSPSSLTVTAGEKVTMSCKSSQNLLNSGNQKKYLNWYQQKPGQPPKLLIYWASTRESGVPDRFTGSGSGTDFTLTISSVQAEDLAVYFCQNDYSYPFTFGAGTKLELK |  | 0.388 nM |  |  | 97% | 57.6% |  | 37.2% | 14.5% |
| CLL-1 antibody clone M5 (antibody, IgG2a, V domains shown) VH: EVQLQQSGAELVRPGASVKLSCTASGFNIKDDYIHWVKQRPEQGLEWIGWIDPEKGDTAYASKFQDKATITSDTSSNTAYLQLSSLTSEDTAVYYCTLTGRFDYWGQGTTLTVSS VL: DIVMSQSPSSLAVSVGEKVTMSCKSSQSLLYSSNQKNNLAWYQQKPGQSPKLLIYWASTRESGVPDRFTGSGSGTDFTLTISSVQAEDLAVYYCQQYYSYRTFGGGTKLEIK | 150 pM | 0.553 nM |  |  | 1.1% | 2.3% |  | 1.7% | 17.9% |
| CLL-1 antibody clone G4 (antibody, IgG1, V domains shown, also called 31.G4; 31G4) VH: EVQLQQSGPELVKPGASMKISCKASGYSFTGYTMNWVKQSHEKNLEWIGPINPYNDGTIYNPNFKGKATLTVDKASSTAYMELLSLTSDDPAVYYCARTDDYDDYTMDYWGQGTSVTVSS VL: EIQMTQTPSSLSASLGDRVTISCRASHDISNYLNWYQQKPDGTLKLLIYYTSRLHSGVPSRFSGSGSGTDYSLTISNLEQEDIATYFCQQGKTLLWTFGGGTKLEIK | 44.4 pM | 0.053 nM |  |  |  | 83.2% | 2 of 2 patient samples | 83.2% |  |
| human chimeric CLL-1 antibody ChiG4 (antibody, V domains shown) VH: EVQLQQSGPELVKPGASMKISCKASGYSFTGYTMNWVKQSHEKNLEWIGPINPYNDGTIYNPNFKGKATLTVDKASSTAYMELLSLTSDDPAVYYCARTDDYDDYTMDYWGQGTSVTVSS VL: EIQMTQTPSSLSASLGDRVTISCRASHDISNYLNWYQQKPDGTLKLLIYYTSRLHSGVPSRFSGSGSGTDYSLTISNLEQEDIATYFCQQGKTLLWTFGGGTKLEIK |  |  |  | 0.105 µg/mL |  |  |  |  |  |
| CLL-1 antibody clone M29 (antibody, IgG1, V domains shown) VH: EVQLQQSGPELVKPGASVKMSCKASGYIFTSYVMYWVKQKPGQGLEWIGYINPYNDGTKYNEKFKGKATLTSDKSSSTAYMELSSLTSEDSAVYYCARYYDYDYYFDYWGQGTTLTVSS VL: DIQMTQSPSSLSASLGGKVTITCKASQDINKYIAWYQHKPGKGPRLLIHYTSTLQPGIPSRFSGSGSGRDYSFSISNLEPEDIATYYCLQYDYLWTFGGGTKLEIK | 91.4 pM | 1.48 nM |  |  | 99.9% | 87.6% |  | 84.6% |  |
| CLL-1 antibody clone G12 (antibody, IgG1, V domains shown) VH: QVQLQQPGAELVKPGASMKMSCKASGYTFPSSNIHWLKQTPGQGLEWIGVIYPGNGDTSYNQKFKDKATLTTDKSSSTAYMQLSSLTSEDSAIYFCARVYNWHFDVWGAGTTVTVSS VL: NIVLTQSPASLAVSLGQRATISCRASESVDGYGDIFMLWYQQKPGQPPKLLIYFASNLESGVPARFSGSGSRTDFTLTIDPVEADDAATYYCQQNNEDPYTFGGGTKLEIKR | 19.4 pM | 0.07 nM |  |  | 99.9% |  | 2 of 2 patient samples | 88.3% |  |
| CLL-1 antibody clone M31 (antibody, IgG2a, V domains shown) VH: EVQLQQSGPELVKPGASVKMSCKASGYTFTSYVMHWVKQKPGQGLEWIGYINPYNDGTKYNEKFKGKATLTSDTSSSTAYMELNSLTSEDSAVYFCARPIYFDNDYFDYWGQGTTLKVSS VL: TIVLTQSPASLAVSLGQRATISCRASESVDSYGNSFMHWYQQKPGQPPKLLIYLASNLESGVPARFSGSGSRTDFTLTIDPVEADDAATYYCQQNNYDPWTFGGGTKLEIK | 34.3 pM | 0.611 nM | no binding |  | 76% | 89.7% |  | 91% | 12.1% |
| human chimeric CLL-1 antibody ChiM31 (antibody, V domains shown) VH: EVQLQQSGPELVKPGASVKMSCKASGYTFTSYVMHWVKQKPGQGLEWIGYINPYNDGTKYNEKFKGKATLTSDTSSSTAYMELNSLTSEDSAVYFCARPIYFDNDYFDYWGQGTTLKVSS VL: TIVLTQSPASLAVSLGQRATISCRASESVDSYGNSFMHWYQQKPGQPPKLLIYLASNLESGVPARFSGSGSRTDFTLTIDPVEADDAATYYCQQNNYDPWTFGGGTKLEIK |  |  |  | 0.143 µg/mL |  |  |  |  |  |
